# Assay results: publication PMC4836274, “Cytokine-Like Factor 1, an Essential Facilitator of Cardiotrophin-Like Cytokine:Ciliary Neurotrophic Factor Receptor α Signaling and sorLA-Mediated Turnover” (Molecular and Cellular Biology, 2016)
# T1: recombinant soluble ciliary neurotrophic factor receptor α (human), P26992
# T1 chain: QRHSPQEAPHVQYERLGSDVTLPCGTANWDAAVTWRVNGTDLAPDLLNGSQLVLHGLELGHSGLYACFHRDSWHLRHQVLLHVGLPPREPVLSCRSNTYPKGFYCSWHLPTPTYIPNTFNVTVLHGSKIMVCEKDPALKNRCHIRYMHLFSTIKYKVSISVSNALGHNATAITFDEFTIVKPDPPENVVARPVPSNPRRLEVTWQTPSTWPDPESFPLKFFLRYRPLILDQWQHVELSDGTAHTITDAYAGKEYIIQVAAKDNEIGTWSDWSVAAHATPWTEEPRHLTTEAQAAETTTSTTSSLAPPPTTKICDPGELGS
# T2: sorLA Vps10p-D (human)
# T2 chain: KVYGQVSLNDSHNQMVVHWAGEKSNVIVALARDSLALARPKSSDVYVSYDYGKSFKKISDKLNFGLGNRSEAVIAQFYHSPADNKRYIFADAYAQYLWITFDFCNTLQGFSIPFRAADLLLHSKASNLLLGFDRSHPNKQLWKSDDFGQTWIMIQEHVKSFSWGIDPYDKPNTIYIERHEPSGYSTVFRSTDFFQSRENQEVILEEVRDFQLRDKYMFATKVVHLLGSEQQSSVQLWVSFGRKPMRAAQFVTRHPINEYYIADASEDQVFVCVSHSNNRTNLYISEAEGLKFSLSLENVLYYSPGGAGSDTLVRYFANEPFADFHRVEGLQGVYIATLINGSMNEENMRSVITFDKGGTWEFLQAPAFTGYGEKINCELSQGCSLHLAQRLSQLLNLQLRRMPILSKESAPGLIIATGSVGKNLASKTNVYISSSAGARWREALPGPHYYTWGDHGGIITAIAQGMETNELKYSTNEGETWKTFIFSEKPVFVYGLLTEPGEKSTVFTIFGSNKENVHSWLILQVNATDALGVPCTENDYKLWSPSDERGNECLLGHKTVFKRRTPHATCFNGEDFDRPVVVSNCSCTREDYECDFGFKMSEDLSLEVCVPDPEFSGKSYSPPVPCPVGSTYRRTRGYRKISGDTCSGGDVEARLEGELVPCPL
# B1: CLF-1–His (His-tagged cytokine-like factor-1) (natural protein, human, UniProt O75462 38-422, looked up)
# chain: AHTAVISPQDPTLLIGSSLLATCSVHGDPPGATAEGLYWTLNGRRLPPELSRVLNASTLALALANLNGSRQRSGDNLVCHARDGSILAGSCLYVGLPPEKPVNISCWSKNMKDLTCRWTPGAHGETFLHTNYSLKYKLRWYGQDNTCEEYHTVGPHSCHIPKDLALFTPYEIWVEATNRLGSARSDVLTLDILDVVTTDPPPDVHVSRVGGLEDQLSVRWVSPPALKDFLFQAKYQIRYRVEDSVDWKVVDDVSNQTSCRLAGLKPGTVYFVQVRCNPFGIYGSKKAGIWSEWSHPTAASTPRSERPGPGGGACEPRGGEPSSGPVRRELKQFLGWLKKHAYCSNLSFRLYDQWRAWMQKSHKTRNQDEGILPSGRRGTARGPAR
# notes: signal peptide in the construct; human CLF-1 coding cDNA (ImaGenes) amplified from the start codon to the C terminus, secreted into the medium; The second codon of the forward primer reads GCC (Ala); this lies in the signal peptide; The introduction gives 385 amino acids for human CLF-1; also called His-tagged CLF-1; source: HEK293 cells transfected, purified from serum-free medium (Talon resin) …
# B2: cardiotrophin-like cytokine:cytokine-like factor-1 heterodimer (complex, human)
# chain 1: LNRTGDPGPGPSIQKTYDLTRYLEHQLRSLAGTYLNYLGPPFNEPDFNPPRLGAETLPRATVDLEVWRSLNDKLRLTQNYEAYSHLLCYLRGLNRQAATAELRRSLAHFCTSLQGLLGSIAGVMAALGYPLPQPLPGTEPTWTPGPAHSDFLQKMDDFWLLKELQTWLWRSAKDFNRLKKKMQPPAAAVTLHLGAHGF
# chain 2: B1 chain
# notes: cardiotrophin-like cytokine (CLC), human, subunit of the bought recombinant heterodimer; cytokine-like factor-1 (CLF-1; cytokine receptor-like factor 1), human, subunit of the bought recombinant heterodimer; also called CLC:CLF-1; His-tagged CLC:CLF-1; source: bought: R&D Systems (insect cells)
# B3: cardiotrophin-like cytokine (ligand, human, UniProt Q9UBD9 28-225, looked up)
# chain: B2 chain 1
# notes: cardiotrophin-like cytokine (CLC), human recombinant; also called CLC; source: bought: R&D Systems (bacteria)
# B4: recombinant soluble ciliary neurotrophic factor receptor α (receptor, human, UniProt P26992 23-342, looked up)
# chain: T1 chain
# notes: CNTF receptor α, human, soluble recombinant form; also called sCNTFRα; soluble CNTFRα; source: bought: R&D Systems
# How the values were obtained:
# [1] = target: T3, soluble sorLA (entire luminal part of sorLA) (human, UniProt Q92673 82-2137); assay: SPR; Biacore 3000, CM5 chip; soluble sorLA (entire luminal part) immobilised at 66 to 86 fmol/mm^2; 25°C; 10 mM HEPES, 150 mM NaCl, 1.5 mM CaCl2, 1 mM EGTA, 0.005% Tween 20, pH 7.4; Langmuir 1:1 model, global fitting; conditions: both partners purified
# T3 construct: sorLA, human cDNA, the entire luminal (extracellular) part; also called luminal domain of sorLA; ectodomain of sorLA
# T3 sequence (Q92673 82-2137): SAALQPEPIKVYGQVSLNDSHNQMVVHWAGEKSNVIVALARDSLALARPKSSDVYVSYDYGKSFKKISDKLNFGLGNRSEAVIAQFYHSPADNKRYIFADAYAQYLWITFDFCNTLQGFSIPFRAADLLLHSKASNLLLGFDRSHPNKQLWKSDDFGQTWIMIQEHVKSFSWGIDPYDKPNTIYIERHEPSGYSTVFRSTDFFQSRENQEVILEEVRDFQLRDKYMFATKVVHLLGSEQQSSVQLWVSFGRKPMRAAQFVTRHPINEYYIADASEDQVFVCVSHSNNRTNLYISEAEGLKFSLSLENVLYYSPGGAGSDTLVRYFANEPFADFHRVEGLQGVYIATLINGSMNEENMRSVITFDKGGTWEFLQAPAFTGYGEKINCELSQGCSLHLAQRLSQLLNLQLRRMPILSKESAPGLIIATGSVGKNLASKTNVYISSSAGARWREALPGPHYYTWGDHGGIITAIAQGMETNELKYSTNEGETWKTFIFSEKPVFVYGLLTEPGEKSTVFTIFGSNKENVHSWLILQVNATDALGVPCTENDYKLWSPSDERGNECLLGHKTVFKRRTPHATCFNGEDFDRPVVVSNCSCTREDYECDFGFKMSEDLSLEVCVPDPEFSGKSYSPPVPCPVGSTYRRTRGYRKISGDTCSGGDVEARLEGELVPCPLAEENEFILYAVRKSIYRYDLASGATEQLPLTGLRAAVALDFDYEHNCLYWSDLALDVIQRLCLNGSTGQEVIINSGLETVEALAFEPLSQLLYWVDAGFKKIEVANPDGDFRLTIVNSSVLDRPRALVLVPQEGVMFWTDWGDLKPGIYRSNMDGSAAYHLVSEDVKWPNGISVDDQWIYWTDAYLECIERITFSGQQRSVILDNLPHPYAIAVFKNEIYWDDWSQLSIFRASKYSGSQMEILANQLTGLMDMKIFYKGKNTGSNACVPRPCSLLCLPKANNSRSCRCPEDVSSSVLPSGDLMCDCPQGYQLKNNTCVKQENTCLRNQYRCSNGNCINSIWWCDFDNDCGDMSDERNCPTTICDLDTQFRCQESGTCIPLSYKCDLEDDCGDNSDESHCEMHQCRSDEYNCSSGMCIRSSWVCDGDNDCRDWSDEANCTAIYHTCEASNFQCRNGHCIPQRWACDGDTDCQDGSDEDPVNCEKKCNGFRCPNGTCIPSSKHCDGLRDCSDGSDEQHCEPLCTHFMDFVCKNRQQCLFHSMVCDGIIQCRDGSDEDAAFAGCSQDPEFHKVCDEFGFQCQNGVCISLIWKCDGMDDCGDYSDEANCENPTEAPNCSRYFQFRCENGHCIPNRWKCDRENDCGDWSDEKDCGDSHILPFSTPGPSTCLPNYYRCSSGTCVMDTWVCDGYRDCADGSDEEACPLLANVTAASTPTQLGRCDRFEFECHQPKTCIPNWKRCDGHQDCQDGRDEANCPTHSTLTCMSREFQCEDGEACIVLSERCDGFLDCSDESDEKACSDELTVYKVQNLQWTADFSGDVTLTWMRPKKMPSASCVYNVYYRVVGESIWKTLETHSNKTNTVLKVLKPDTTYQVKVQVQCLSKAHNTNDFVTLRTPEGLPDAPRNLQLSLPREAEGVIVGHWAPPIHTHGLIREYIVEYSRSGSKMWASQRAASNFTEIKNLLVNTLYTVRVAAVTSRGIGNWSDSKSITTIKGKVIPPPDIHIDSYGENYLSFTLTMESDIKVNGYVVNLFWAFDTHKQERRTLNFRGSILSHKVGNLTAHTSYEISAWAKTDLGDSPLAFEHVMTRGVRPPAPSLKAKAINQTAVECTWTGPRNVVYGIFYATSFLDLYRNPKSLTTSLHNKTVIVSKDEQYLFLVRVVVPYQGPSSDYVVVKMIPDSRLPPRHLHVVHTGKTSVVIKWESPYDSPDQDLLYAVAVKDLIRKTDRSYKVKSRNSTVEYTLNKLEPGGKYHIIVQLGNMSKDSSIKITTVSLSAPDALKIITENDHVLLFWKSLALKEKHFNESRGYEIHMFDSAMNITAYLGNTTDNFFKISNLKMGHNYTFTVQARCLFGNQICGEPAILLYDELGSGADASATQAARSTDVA
# [2] = target: T1, recombinant soluble ciliary …; assay: SPR; Biacore 3000, CM5 chip; sCNTFRα immobilised at 66 to 86 fmol/mm^2; 25°C; 10 mM HEPES, 150 mM NaCl, 1.5 mM CaCl2, 1 mM EGTA, 0.005% Tween 20, pH 7.4; Langmuir 1:1 model, global fitting; conditions: remark: other sources report otherwise
# [3] = target: full-length sorLA in transfected HEK293 cells (human, UniProt Q92673 82-2214); assay: cell-based or functional assay
# full-length sorLA in transfected HEK293 cells, sequence (Q92673 82-2214): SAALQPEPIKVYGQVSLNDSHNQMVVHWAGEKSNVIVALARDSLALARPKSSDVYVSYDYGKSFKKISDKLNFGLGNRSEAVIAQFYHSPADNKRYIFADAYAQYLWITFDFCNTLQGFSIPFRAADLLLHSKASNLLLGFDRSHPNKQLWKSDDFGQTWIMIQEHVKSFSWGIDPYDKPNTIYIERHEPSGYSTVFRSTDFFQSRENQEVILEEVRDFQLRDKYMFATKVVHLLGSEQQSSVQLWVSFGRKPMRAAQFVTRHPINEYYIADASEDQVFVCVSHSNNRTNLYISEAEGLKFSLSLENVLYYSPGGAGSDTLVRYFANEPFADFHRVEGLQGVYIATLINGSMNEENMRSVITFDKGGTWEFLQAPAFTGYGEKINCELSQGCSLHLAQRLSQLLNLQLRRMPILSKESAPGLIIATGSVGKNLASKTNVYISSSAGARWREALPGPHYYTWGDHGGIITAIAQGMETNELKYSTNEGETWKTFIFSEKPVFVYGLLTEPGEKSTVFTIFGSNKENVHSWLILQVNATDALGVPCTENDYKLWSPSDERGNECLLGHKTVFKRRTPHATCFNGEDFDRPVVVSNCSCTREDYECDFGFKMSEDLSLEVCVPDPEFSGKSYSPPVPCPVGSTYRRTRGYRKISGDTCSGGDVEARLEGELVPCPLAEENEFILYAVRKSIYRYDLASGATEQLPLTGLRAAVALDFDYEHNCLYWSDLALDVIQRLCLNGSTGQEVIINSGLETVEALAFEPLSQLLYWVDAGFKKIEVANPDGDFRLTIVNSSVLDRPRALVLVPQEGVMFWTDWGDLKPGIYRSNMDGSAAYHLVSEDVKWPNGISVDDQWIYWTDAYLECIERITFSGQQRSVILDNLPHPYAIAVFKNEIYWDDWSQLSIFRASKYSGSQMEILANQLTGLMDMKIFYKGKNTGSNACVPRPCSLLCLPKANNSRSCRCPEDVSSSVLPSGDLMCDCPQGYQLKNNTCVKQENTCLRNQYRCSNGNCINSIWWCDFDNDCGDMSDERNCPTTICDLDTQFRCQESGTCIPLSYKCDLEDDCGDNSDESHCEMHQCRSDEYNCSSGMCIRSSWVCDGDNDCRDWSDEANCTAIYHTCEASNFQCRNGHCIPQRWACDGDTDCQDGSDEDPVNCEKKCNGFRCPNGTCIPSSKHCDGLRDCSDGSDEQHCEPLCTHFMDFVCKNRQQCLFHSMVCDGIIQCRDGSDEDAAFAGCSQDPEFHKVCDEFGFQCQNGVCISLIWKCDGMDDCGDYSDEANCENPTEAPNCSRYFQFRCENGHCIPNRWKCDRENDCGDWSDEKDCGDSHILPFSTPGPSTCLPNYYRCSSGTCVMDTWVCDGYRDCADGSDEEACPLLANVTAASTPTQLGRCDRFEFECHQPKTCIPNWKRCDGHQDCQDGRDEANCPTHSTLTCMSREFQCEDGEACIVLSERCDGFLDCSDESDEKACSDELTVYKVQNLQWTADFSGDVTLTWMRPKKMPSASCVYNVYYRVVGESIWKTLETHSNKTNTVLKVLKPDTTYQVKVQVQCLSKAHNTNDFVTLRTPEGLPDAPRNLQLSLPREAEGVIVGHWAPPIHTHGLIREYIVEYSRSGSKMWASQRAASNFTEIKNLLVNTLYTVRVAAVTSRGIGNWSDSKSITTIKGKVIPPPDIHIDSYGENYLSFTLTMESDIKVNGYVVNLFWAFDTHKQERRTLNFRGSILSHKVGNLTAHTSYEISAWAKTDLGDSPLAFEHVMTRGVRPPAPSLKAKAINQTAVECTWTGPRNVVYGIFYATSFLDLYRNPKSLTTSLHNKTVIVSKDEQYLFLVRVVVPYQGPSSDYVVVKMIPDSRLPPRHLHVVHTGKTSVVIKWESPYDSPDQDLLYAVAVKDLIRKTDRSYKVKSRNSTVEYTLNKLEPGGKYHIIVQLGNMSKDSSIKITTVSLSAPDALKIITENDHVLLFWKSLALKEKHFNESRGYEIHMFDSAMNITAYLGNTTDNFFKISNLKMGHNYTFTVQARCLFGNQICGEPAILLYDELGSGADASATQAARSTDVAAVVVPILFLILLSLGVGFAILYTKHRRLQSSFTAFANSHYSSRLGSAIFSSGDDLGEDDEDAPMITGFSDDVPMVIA
# [4] = target: B4; assay: SPR; Biacore 3000, CM5 chip; sCNTFRα immobilised at 66 to 86 fmol/mm^2; 25°C; 10 mM HEPES, 150 mM NaCl, 1.5 mM CaCl2, 1 mM EGTA, 0.005% Tween 20, pH 7.4; Langmuir 1:1 model, global fitting; conditions: both partners purified
# sorLA Vps10p-D = target: T2, sorLA Vps10p-D; assay: SPR
# [5] = target: B2; assay: SPR; Biacore 3000, CM5 chip; sCNTFRα immobilised at 66 to 86 fmol/mm^2; 25°C; 10 mM HEPES, 150 mM NaCl, 1.5 mM CaCl2, 1 mM EGTA, 0.005% Tween 20, pH 7.4; Langmuir 1:1 model, global fitting; conditions: both partners purified
# [6] = target: T3, soluble sorLA (entire luminal part of …); assay: SPR; immobilised sorLA preincubated with buffer or with 5 μM inhibitor (sorLA propeptide or RAP) before the ligand was added; conditions: both partners purified
binder,measurement,setting,value
B1,Kd,[1],4 nM
same,Kd,[2],4 nM
B2,Kd,[1],5 nM
same,"pSTAT3 in CNTFRα-deficient Ba/F3 cells (gp130/LIFRβ) stimulated with CLC:CLF-1 and sCNTFRα, sorLA transfectants against untransfected cells",[3],~4 fold
B3,Kd,[4],66 nM
B4,Kd,sorLA Vps10p-D,~14 nM
same,Kd,[5],0.3 nM
same,binding result,[6],binds
